Results on seven molecules are retold here after patent US20030105292A1.

Assay [1] has as its target Gs protein.
The target of assay [2] is G protein Gi.
For assay [3], the target named is G protein Gi. This is another data set of the same source.
For assay [4], the target named is Gs protein. The source holds these as a separate data set.

For “endogenous, constitutively activated GPR6 (from UniProt P46095) (receptor)”, the luciferase, CRE-Luc reporter in 293 cells (relative light units) in the assay with Gs protein [1] turned out to be 104.

In the assay with G protein Gq, “non-endogenous human ETBR-LP2 (N358K) (receptor)” registered a luciferase, AP1 reporter assay in 293T cells; Per-Cent Difference of the non-endogenous against the endogenous GPCR of 61.1% and a luciferase, AP1 reporter assay in 293 cells; Per-Cent Difference of the non-endogenous against the endogenous GPCR of 48.4%.

“non-endogenous, constitutively active GPR30 (L258K) (receptor)” showed a luciferase, CRE-Luc reporter in 293 cells co-transfected with GPR6; Per-Cent Difference of the non-endogenous against the endogenous GPCR in the assay with G protein Gi [2] of 71.6%.

In the assay with G protein Gi [2], “non-endogenous, constitutively activated GPR17 (V234K) (receptor)” came in with a luciferase, 8xCRE-Luc reporter in 293 cells co-transfected with GPR3; Per-Cent Difference of the non-endogenous against the endogenous GPCR of 74.5%.

As to endogenous human GPR30 (receptor), the luciferase, CRE-Luc reporter in 293 cells co-transfected with GPR6 at a 1:4 ratio (relative light units) with G protein Gi [3] worked out at 104.

B1: non-endogenous human APJ (L247K) (receptor)
chain: MEEGGDFDNYYGADNQSECEYTDWKSSGALIPAIYMLVFLLGTTGNGLVLWTVFRSSREKRRSADIFIASLAVADLTFVVTLPLWATYTYRDYDWPFGTFFCKLSSYLIFVNMYASVFCLTGLSFDRYLAIVRPVANARLRLRVSGAVATAVLWVLAALLAMPVMVLRTTGDLENTTKVQCYMDYSMVATVSSEWAWEVGLGVSSTTVGFVVPFTIMLTCYFFIAQTIAGHFRKERIEGLRKRRRLKSIIVVLVVTFALCWMPYHLVKTLYMLGSLLHWPCDFDLFLMNIFPYCTCISYVNSCLNPFLYAFFDPRFRQACTSMLCCGQSRCAGTSHSSSGEKSASYSSGHSQGPGPNMGKGGEQMHEKSIPYSQETLVVD
Take B1: the [35S]GTPgammaS binding to membranes expressing the receptor; Per-Cent Difference of the non-endogenous against the endogenous GPCR with G protein was determined as 49%.

B2: non-endogenous human GHSR (V262K) (receptor)
chain: MWNATPSEEPGFNLTLADLDWDASPGNDSLGDELLQLFPAPLLAGVTATCVALFVVGIAGNLLTMLVVSRFRELRTTTNLYLSSMAFSDLLIFLCMPLDLVRLWQYRPWNFGDLLCKLFQFVSESCTYATVLTITALSVERYFAICFPLRAKVVVTKGRVKLVIFVIWAVAFCSAGPIFVLVGVEHENGTDPWDTNECRPTEFAVRSGLLTVMVWVSSIFFFLPVFCLTVLYSLIGRKLWRRRRGDAVVGASLRDQNHKQTKKMLAVVVFAFILCWLPFHVGRYLFSKSFEPGSLEIAQISQYCNLVSFVLFYLSAAINPILYNIMSKKYRVAVFRLLGFEPFSQRKLSTLKDESSRAWTESSINT
In the assay with Gs protein [4], B2 had a luciferase, CREB reporter assay in 293T cells; Per-Cent Difference of the non-endogenous against the endogenous GPCR of 35.6% and a luciferase, CREB reporter assay in 293 cells; Per-Cent Difference of the non-endogenous against the endogenous GPCR of 58.9%.
